Results taken from US11906524B2, “Urea biosensors and uses thereof” (Duke University, priority 2015, dated 2024).
Marks after values point to notes of the source that are not given here.

Key:
[1] = Thermal stability of purified UBP candidates (SYPRO Orange thermal melt, Roche LightCycler); assay type: physicochemical; settings: apo-protein; SYPRO Orange monitors unfolded protein
Procedure: The urea-binding properties of these leads were determined experimentally (Table 4). These experiments comprise four successive steps: • 1. Synthetic gene construction. […] Heterologous protein expression of the homologues in E. coli. […] Verification of urea binding.
Analysis of urea-binding properties using thermal melts.

[2] = Temperature- and urea-dependent fluorescence landscapes of fluorescent conjugates (Roche LightCycler); assay type: binding; set-up: key: y, yes; n, no; settings: Acrylodan conjugate; fluorescent response to urea
Summary of the method: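 Acrylodan or Badan was attached to single-cysteine csUBP7 mutants and fluorescence was recorded over 0–4.8 M urea in 20 mM KCl, 20 mM MOPS (pH 7.4), with temperature stepped by 1K. Urea Kd came from ratiometric single-site fits, and Kd values across temperatures were fit to the Gibbs-Helmholtz equation.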

[3] = Urea titration of emission intensity spectra (Nanodrop3300) with ratiometric analysis, singly labeled conjugates; assay type: binding; set-up: key: m, monochromatic; d, dichromatic (i.e. spectral shape changes); 0, no change; settings: urea response
Excerpt: Determination of emission intensity spectra.
Ratiometric analysis of urea binding. […] 2
For a single urea-binding site, the fractional saturation is given by
[formula] where [L] is the ligand (urea) concentration and Kd the dissociation constant, ^trueKd for ytrue.
[formula] where ^appIλ2 and ^satIλ2 are the emission intensities of the monochromatic signal at wavelength λ2 of the ligand-free and ligand-bound protein, respectively.

| Molecule | Thermostability ^apoTm [1] | further results |
| --- | --- | --- |
| gkUBP10: urea-binding protein from Geobacillus kaustophilus with FATT domain, SEQ ID NO: 20 (protein, gkUBP10 (with signal peptide replaced with M, which is followed by a FATT domain, followed by a sequence fragment for C3 protease, and with a GGSHHHHHH at C-terminus)) MAEESDNVDSADAEEDDSDVWWGGADTDYADGSEDKVVEVAEEEEVAEVEEEEADDDEDDEDGDEVEEEAEEPYEEATERTTSIATTTTTTTESVEEVLEVLFQGPASSAVDQAKNENKKDSSSASKEGDTVKVGILHSLSGTMAISEVSLRDAELMAIEEINASGGLLGKKIEPVVEDGASDWPTFAEKAKKLLQKDQVAAIFGGWTSASRKAMLPVVEQNNGLLWYPVQYEGMESSPNIFYTGATTNQQIVPAVSWLLKNRGKTFFLLGSDYVFPRTANKIIKAQLKAEGGQVVGEEYTPLGHTDYSTIISKIKQVKPAVVFNTLNGDSNVAFFKQLKDAGITPKDVTVMSVSIAEEEIRGIGPDVLAGHLAVWNYFQTTDTPENKAFVQKYKEKYGQDRVTDDPIEAAYTAVHLWAEAVKKAGSFDVDQVKKAAAGLEYKAPEGTVKIDGETQHLWKTVRIGEIQADGQFKELWNSGQPVKPDPYLKSYPWAKGLSEGGSHHHHHHHH | >100 °C |  |
| psUBP11: urea-binding protein from Paenibacillus sp. with FATT domain, SEQ ID NO: 21 (protein, psUBP11 (with signal peptide replaced with M, which is followed by a FATT domain, followed by a sequence fragment for C3 protease, and with a GGSHHHHHH at C-terminus)) MAEESDNVDSADAEEDDSDVWWGGADTDYADGSEDKVVEVAEEEEVAEVEEEEADDDEDDEDGDEVEEEAEEPYEEATERTTSIATTTTTTTESVEEVLEVLFQGPKETAPTAGAGNGSPPVEAAGDSIKVGILHSLSGTMAISEVSVKDAEMLAIEEINAAGGVLGKQIEPVIEDGASDWPTFAEKAGKLLQQDKVAAVFGGWTSASRKAMLPVFEQNHGLLFYPVQYEGLESSPNIFYTGATTNQQIVPSVSWLLENRGKKMFLLGSDYVFPRTANKIIKAQLTAEGGELAGEEYTPLGHTDFSTIIAKIKEAKPDIVYNTLNGDSNVAFFKQLKDAGTTSKDMTTLSVSVAEEEIRGIGADILEGHLAAWNYYQSTDTPENKAFVDKYKAKYGADRVTADPIEAGYTAVYLWKAAVEKAGTTDVDKVKEAAKGIEFAAPEGKVTIDGDNQHIHKTVRIGEVQADGQFKELWNSGEPVKPDPYLKTYDWAKGLSGEGGSHHHHHH | 80 °C |  |
| bsUBP3: urea-binding protein from Bacillus sp., SEQ ID NO: 14 (protein, bsUBP3 (with signal peptide replaced with M and a GGSHHHHHH at C-terminus)) MKVGILHSLSGTMAISEVSVHDAELIAIQEINQKGGVLGKKLEPVVEDGASDWPTYAEKMRKLLQQDKVAAVFGGWTSASRKAMLPVVEQNNGLLFYPVQYEGMETSPNIFYTGATTNQQIVPAVDWLLKNKGKKFFLIGSDYVFPRTANKIIKAQVKAGGGEIAGEEYTPLGHTNYSTLVSKIKEKQPDVIFNTLNGDSNVAFFKQLKDAGISADDMPVMSASVAEEEIRGIGPDVLKGHYAVWNYFQTTNTSENQTFVKNYKKMNGDSRVTSDPIEAGYNAVYLWAAAVEKAKSFDVDKVKKAADGISFKAPGGTVKIDGDTQHLYKTVRIGQITGDGQFKEVWNSGEPVKPDPYLKTYDWAKGLSKGGSHHHHHH | 51 °C |  |
| ctUBP6 W95C: ctUBP6 95C cysteine mutant (SEQ ID NO: 49), tested as Acrylodan and Badan conjugates (conjugate, Acrylodan or Badan conjugate; ctUBP6_95C (95C substitution mutant with signal peptide replaced with M and a GGSHHHHHH at C-terminus)) MVEEPVDNKPGTDTSAEDTIKVGILHSLSGTMAISEVSLKDAELMAIEEINQAGGLLGKKIEPVIEDGASDWPTFAEKAKKLLQNDKVATVFGCCTSASRKAVLPVFEENNGLLWYPVQYEGMESSPNIFYTGAAPNQQIVPAVEWLLENKGKRFFLLGSDYVFPRTANKIIKAQLSAIGGELIAEEYTPLGHTDYSTIVNKIKTAKPDVVFNTLNGDSNVAFFKQLKDAGITSEDITVCSVSVAEEEIRGIGAENIKGHLVSWNYYQTTDTPENKEFVEKYKSKYGSDRVTDDPIEAAYIAVHLWAEAVKKAGSFEVEKVKEAAKGLEFKAPEGLVKIEGENQHLWKPVRIGEVQEDGLIKEIWSTSEAVRPDPYLKTYDWAKGLSDGGSHHHHHH |  | Response [2]: y; Shape ([3]; ctUBP6 Acrylodan conjugate): m; Shape ([3]; ctUBP6 Badan conjugate): m |
| teUBP12: urea-binding protein from Thermosynechococcus elongatus with FATT domain, SEQ ID NO: 22 (protein, teUBP12 (with signal peptide replaced with M, which is followed by a FATT domain, followed by a sequence fragment for C3 protease, and with a GGSHHHHHH at C-terminus, as well as C185A, C216A, and C481A mutations)) MAEESDNVDSADAEEDDSDVWWGGADTDYADGSEDKVVEVAEEEEVAEVEEEEADDDEDDEDGDEVEEEAEEPYEEATERTTSIATTTTTTTESVEEVLEVLFQGPGGDTIKVGILHSLSGTMAISEKSVVDATQLAIEQINQAGGVLGKQIQPILEDGASDWPTFAEKATKLIDQDKVVAVFGAWTSASRKAVLPVFESKNHMLWYPVQYEGQEASKNIFYTGAAPNQQIEPAVDWLLQNKGKKFFLVGSDYVFPRTANTIIKAQLAAKGGETVGEDYLPLGNTEVTPIITRIRNALPDGGVIFNTLNGDSNVAFFKQLQGAGLTPDKYPTMSVSIAEEEVQAIGVEYLKGHYAAWNYFMTVDTPENKSFVEAFKAKFGQNRVTNDPMEAAYIAVHLWKQAVEQAGTADDLEKVRQAAIGQTFNAPEGPVKMFANHHISKTVRIGEVGEDGLFKIVYSTPQPVDPLPWNQFVAETKGFAADWTRTDVDNPGKFKAAGAGGSHHHHHH | 84 °C |  |
| mhUBP2: urea-binding protein from Marinobacter hydrocarbanoclasticus, SEQ ID NO: 13 (protein, mhUBP2 (with signal peptide replaced with M and a GGSHHHHHH at C-terminus, and also comprising C385A and C395A mutations)) MKVGILHSLSGTMAISETALKDTMLMLIEKQNEAGGVLGRQLEPVVVDPASNWPLFAEKARELLEKEKVDVIFGNWTSVSRKSVLPVVEELNGLLFYPVQYEGEESSENVFYTGAAPNQQAIPAVDYLMNDLGVERWVLAGTDYVYPRTTNKILETYLKDKGVAAGDIMINYTPFGHSDWQTIVSDIKKFGSAGKKTAVVSTINGDANVPFYRELGNQGISATDIPVVAFSVGEQELSGIDTAPLVGHLAAWNYFMSVDNDANYDFIDAWVAYKGDDAAVTNDPMEAHYIGFNMYVEAVKKAGTTDVDEVKDAIIGVSVPNLTGGYATMMPNHHITKPVLIGEIQDNGQFSVVWETPSTVAGDAWSDFLPGSKDLISDWRAPLRAGNFNVVTGKAGGGSADVASNGGSHHHHHH | <25^e ° C. |  |
| csUBP7: urea-binding protein from Caldicellulosiruptor saccharolyticus, C89A, SEQ ID NO: 18 (protein, csUBP7 (with signal peptide replaced with M and a GGSHHHHHH at C-terminus, and also comprising a C89A substitution)) MSSSESEKEKSEETIKVGILHSLSGTMSISEVSLKDAELMAIEEINNNGGVLGKKLEPIVEDGASDWPTFAEKAKKLLQKDKVAVIFGAWTSASRKAVLPVVEENNGLLFYPVQYEGLESSPNIFYMGAAPNQQIVPAVKWLFDNGKKRFYLLGSDYVFPRTANKIIKAYLKYLGGVVVGEEYTPLGHTDYSSVINKIKAAKPDVVFNTLNGDSNVAFFKQLKDAGIDANTLPVMSVSIAEEEIKGIGPEYLKGHLVTWNYFQSVDTPENKEFVEKYKKKYGEDRVTDDPIEAAYIGVYLWAKAVEKAGSTDVDKVREAAKGIEFNAPEGPVKIDGDNQHLYKTVRIGEILENGQIRELWKTNKPVKPDPYLKGYEWAQGLSEQGGSHHHHHH | 67 °C |  |
